Data on three compounds can be found in paper PMC9576616, “Synthesis, preclinical evaluation and radiation dosimetry of a dual targeting PET tracer [^68Ga]Ga-FAPI-RGD” (Theranostics, 2022).

Data set [1] deals with primary tumors and metastases. Description: Comparison of [^68Ga]Ga-FAPI-RGD and 2-[^18F]FDG PET/CT tumor uptake in patients. The method, then: (§1) All patients underwent [^68Ga]Ga-FAPI-RGD PET/CT and 2-[^18F]FDG PET scanning using a dedicated PET/CT scanner (Biograph mCT64, Siemens Healthcare).
(§2) [^68Ga]Ga-FAPI-RGD PET/CT The CT scans were performed with a tube voltage of 120 kV, an effective tube current of 70-120 mA (Care Dose 4D), and a slice thickness of 3 mm. Serial whole-body dynamic PET scans were immediately performed after the CT scan in 3D acquisition mode (matrix: 200 × 200). The whole body (from the top of skull to the middle of femur) of each patient was covered by 6 bed positions. The acquisition duration was 30 s/bed position at 3 min after injection; 1 min/bed position at 15 min after injection; and 2 min/bed position at 30, 60, and 120 min after injection.
(§3) 2-[^18F]FDG PET/CT All patients were fast at least 6 h to keep and images were obtained at 60-80 min after the intravenous injection of 2-[^18F]FDG (3.70 MBq [0.10 mCi]/kg). 2-[^18F]FDG was purchased from Fuzhou PET-Tracer Co. Ltd, and the radiochemical purity was more than 95%.
(§4) For [^68Ga]Ga-FAPI-RGD PET/CT, only PET/CT datasets acquired approximately 1 h after injection were used for analysis.

For data set [2] the following is noted: human, in vivo. The procedure: Organ delineation and activity accumulation at each imaging time point was determined using Hybrid-Dosimetry software (Hermes Medical Solutions, Sweden). Time-activity curve fitting and subsequent dose calculation was performed using OLINDA/EXM, version 2.2.0. Kidneys, liver, spleen, urinary bladder content, L2-L4 lumbar vertebrae for red marrow dosimetry, heart content, lung, brain, pancreas, thyroid, salivary glands and stomach contents were included as source organs. Red bone marrow dosimetry was done by image-based 3D volumetric analysis of L2-L4 vertebrae, which is considered to constitute 6.7% of the total bone marrow. The ROIs for the above organs were drawn from the examination that had the best organ delineation and then were copied onto all other time points to calculate the time-activity curves. The mono- or bi-exponential curve fitting parameters were applied to derive the best curve fit for the residence time of activity in the source organ. Once all the organ residence times were derived from the kinetic input model, they were entered in the adult female or male model data to derive the absorbed doses to all the organs, including the whole-body effective dose, and generated in mSv/MBq and rem/mCi. The time-activity graphs of various organs were generated using GraphPad Prism software.

Data set [3] can be described thus: MicroPET imaging in Panc02 tumor-bearing mice. Further details: species or system C57BL/6 mice. The conditions noted are these: C57BL/6, mouse, in vivo, iv, 7.4 MBq, total radioactivity; for tissue uptake at 0.5 h: 0.5 h p.i.; for tissue uptake at 1 h: 1 h p.i.; for tissue uptake at 2 h: 2 h p.i.; for tissue uptake at 4 h: 4 h p.i. The procedure:
All animal studies were approved by the Animal Care and Use Committee of Xiamen University and carried out in compliance with the national laws related to the conduct of animal experiments. Panc02 tumor model was generated by subcutaneous injection of 5 × 10^6 tumor cells suspended in 100 μL PBS, into the upper limb flank of C57BL/6 mice (Beijing Vital River Laboratory Animal Technology Co., Ltd.). The tumor mice were subjected to microPET and biodistributions studies when the tumor volume reached 200-300 mm^3.
PET scans were performed by using Inveon small-animal PET scanner (Siemens Preclinical Solution). About 7.4 MBq of [^68Ga]Ga-FAPI-RGD was given to Panc02 tumor xenografted mice through tail vein injection for the 10-min static PET imaging. At 0.5, 1, 2 and 4 h post-injection (p.i.), mice were anaesthetized and placed on imaging chamber of PET/CT scanner for image acquisition. […] The blocking study was performed by injecting unlabeled c(RGDfK), FAPI-02, or RGDfK+FAPI-02, before administering [^68Ga]Ga-FAPI-RGD. PET images were reconstructed using three-dimensional ordered-subset expectation-maximization (3D OSEM) algorithm and with a Maximum a Posteriori (MAP) method and analyzed through drawing regions of interest (ROIs).

Data set [4] can be described thus: clinical. The conditions noted are these: human, in vivo, total radioactivity. The method, then: as §1, §2, §3, §4
Another data set can be described thus: in vivo. Conditions: C57BL/6, mouse, iv, 740 kBq, total radioactivity. Further details: species or system C57BL/6 mice. The procedure:
All animal studies were approved by the Animal Care and Use Committee of Xiamen University and carried out in compliance with the national laws related to the conduct of animal experiments. […] Tissue and organs of interest were collected, wet weighted and activity measured by a γ-counter. […] The results were calculated as percentage of injected dose per gram (%ID/g).

A short description of data set [5]: clinical. Conditions: human, in vivo, total radioactivity. The procedure: (§5) This study was approved by the institutional review board of the First Affiliated Hospital, Fujian Medical University and registered at ClinicalTrials.gov (NCT05515783). All patients signed an informed consent form before participation and all procedures were conducted in accordance with the Declaration of Helsinki. The inclusion criteria were as follows: […] (2) primary malignancies confirmed by pathology. The exclusion criteria were patients: (1) who suffered from severe hepatic and renal insufficiency; (2) pregnant or lactational women.
The source holds these as a separate data set.

Data set [6] concerns malignant tumors and normal organs. Description: clinical. Conditions: human, in vivo. The procedure:
as §5

Data set [7] is classed as physicochemical. The procedure:
Radiolabeling of ^68Ga was performed by incubation with 50 μg FAPI-RGD in NaOAc buffer solution (pH = 4.5) at 95 ℃ for 10 min. The product was purified by C18 column extraction. The radiochemical purity and stability of [^68Ga]Ga-FAPI-RGD were determined by radio-HPLC.
FAPI-RGD and its intermediate products were characterized by TOF-MS and HPLC (Figure S1-9). The radiolabeling yield and radiochemical purity of [^68Ga]Ga-FAPI-RGD were consistently over 99%. […] The radiochemistry purity was over 99% within 4 h.

The test system of a further data set is Panc02 tumor cells. As to the kind of experiment: Cellular uptake assay on Panc02 tumor cells. The class given is cell-based. The conditions noted are these: 37 kBq, 37 °C, 10, 30, 60, 90 and 120 min, n = 4. The procedure: Panc02 cell line was purchased from the American Type Culture Collection (ATCC), and cultured in Dulbecco modified Eagle medium (DMEM) containing 10% (v/v) fetal bovine serum (FBS) at 37 °C with 5% CO2. Panc02 cells were seeded in 24-well plates with 2 × 10^5 cells per well. […] Then, the medium was removed and the cells were washed twice with cold PBS (pH 7.4) and subsequently lysed with 0.5 mL of NaOH (1 M). In the blocking studies, excess amount of unlabeled FAPI-RGD, FAPI-02, RGDfK, FAPI-02+RGDfK (10 μg/well) were added as inhibitors into the cells along with [^68Ga]Ga-FAPI-RGD. After 1 h, the cells were treated in the same way. Cell lysates was collected and the radioactivity was determined using a γ counter.

[8] abbreviates: i.v. tail vein, n = 3, ROI, mean ± SD.
Where [9] appears, read: average SUVmean of thyroid glands.

SMILES strings stand for the structures. Like-named read-outs stand apart in the source and are kept apart here.

Turning to `OC[C@H]1O[C@@H](O)[C@H]([18F])[C@@H](O)[C@@H]1O` [2-[^18F]FDG, reference compound], in data set [1] (6 patients, FAPI-RGD approximately 1 h after injection, FDG 60-80 min after injection, mean ± SD, p = 0.459), the “mean SUVmax in primary tumors” value is 10.3 ± 6.9. In addition, in data set [1] (single patient, intra-individual comparison), the “SUVmax of primary lesion, patient with renal cell carcinoma” value came to 2.7. The compound also returned an SUVmax of metastasis in data set [1] (three patients with metastatic foci, mean ± SD, p = 0.373) of 7.6 ± 5.3.

For `N#C[C@@H]1CCCN1C(=O)CNC(=O)c1ccnc2ccc(OCCCN3CCN(C(=O)CCOCCOCCNC(=O)[C@H](CCC(=O)NCCOCCOCCC(=O)NCCCC[C@@H]4NC(=O)[C@@H](Cc5ccccc5)NC(=O)[C@H](CC(=O)O)NC(=O)CNC(=O)[C@H](CCCNC(=N)N)NC4=O)NC(=O)CN4CCN(CC(=O)O)CCN(CC(=O)O)CC4)CC3)cc12` [[^68Ga]Ga-FAPI-RGD, metal not drawn], in [2], the effective dose was 1.94 mSv/100 MBq and the “total body effective dose for administration of 185 MBq (5.0 mCi)” value is 3.6 mSv. In data set [2] (iv), the “Estimated absorbed dose, Adrenals” value is recorded as 1.04E-02 mSv/MBq; the “Estimated absorbed dose, Brain” value is listed as 3.38E-03 mSv/MBq; the “Estimated absorbed dose, Esophagus” value is 7.55E-03 mSv/MBq; the “Estimated absorbed dose, Eyes” value is recorded as 5.47E-03 mSv/MBq. Further, in data set [2] (iv), the “Estimated absorbed dose, Gallbladder Wall” value is recorded as 8.35E-03 mSv/MBq; the “Estimated absorbed dose, Heart Wall” value was 2.04E-02 mSv/MBq; the “Estimated absorbed dose, Kidneys” value is recorded as 3.24E-02 mSv/MBq; the “Estimated absorbed dose, Left colon” value is 7.80E-03 mSv/MBq. For the same compound, in data set [2] (iv), the “Estimated absorbed dose, Liver” value is reported as 1.45E-02 mSv/MBq; the “Estimated absorbed dose, Lungs” value is recorded as 2.33E-02 mSv/MBq; the “Estimated absorbed dose, Osteogenic Cells” value is reported as 1.07E-02 mSv/MBq; the “Estimated absorbed dose, Pancreas” value is 3.06E-02 mSv/MBq. Moreover, in data set [2] (iv), the “Estimated absorbed dose, Prostate” value is 1.24E-02 mSv/MBq; the “Estimated absorbed dose, Rectum” value is 1.06E-02 mSv/MBq; the “Estimated absorbed dose, Red Marrow” value is listed as 1.45E-02 mSv/MBq; the “Estimated absorbed dose, Right colon” value is 7.53E-03 mSv/MBq. Besides, in [2] (iv), the “Estimated absorbed dose, Salivary Glands” value is 2.09E-02 mSv/MBq; the “Estimated absorbed dose, Small Intestine” value is reported as 8.16E-03 mSv/MBq; the “Estimated absorbed dose, Spleen” value is listed as 2.25E-02 mSv/MBq; the “Estimated absorbed dose, Stomach Wall” value was 1.20E-02 mSv/MBq. In addition, in [2] (iv), the “Estimated absorbed dose, Testes” value is listed as 7.13E-03 mSv/MBq; the “Estimated absorbed dose, Thymus” value was 7.41E-03 mSv/MBq; the “Estimated absorbed dose, Thyroid” value was 3.31E-02 mSv/MBq; the “Estimated absorbed dose, Total Body” value is listed as 8.92E-03 mSv/MBq. Besides, in data set [2] (iv), the “Estimated absorbed dose, Urinary Bladder Wall” value is 2.26E-01 mSv/MBq and the “effective dose” value came to 1.94E-02 mSv/MBq. Besides, in [3] (setting [8]), the tissue uptake at 0.5 h is 5.25 ± 0.54 %ID/g, the tissue uptake at 1 h came to 5.13 ± 0.65 %ID/g and the tissue uptake at 2 h is 5.33 ± 0.27 %ID/g. Besides, the tissue uptake at 4 h in data set [3] (i.v. tail vein, n = 3, ROI, mean ± SD, read-out: tumor uptake (microPET)) stood at 5.04 ± 0.16 %ID/g. For the same compound, the tissue uptake at 4 h in [3] (n = 3, read-out: blood uptake (microPET)) was found to be 1.4 ± 0.08 %ID/g. Besides, in data set [3] (n = 3, read-out: kidney uptake (microPET)), the tissue uptake at 4 h was 2.78 ± 0.46 %ID/g. Further, the tissue uptake at 4 h in data set [3] (n = 3, read-out: liver uptake (microPET)) was determined as 1.83 ± 0.39 %ID/g. Further, the SUV at 1 h in “clinical [4]” (SUVmax of metastasis) turned out to be 6.5 ± 2.6 SUV. For the same compound, the SUV at 1 h in “clinical [4]” (SUVmax of primary lesion, patient with renal cell carcinoma) came out at 5.1 SUV. Also, the SUV at 1 h in the data set “clinical [4]” (mean SUVmax in primary tumors) turned out to be 8.9 ± 3.2 SUV. In “in vivo”, the tissue uptake at 0.5 h is 6.16 ± 0.46 %ID/g, the tissue uptake at 1 h came to 5.95 ± 0.43 %ID/g, the tissue uptake at 2 h is 5.78 ± 0.28 %ID/g and the tissue uptake at 4 h was determined as 5.79 ± 0.22 %ID/g. For the same compound, in the data set “clinical [5]” (setting [9]), the SUV at 0.05 h was found to be 7.8 SUV and the SUV at 2 h was 3 SUV. In “clinical [5]” (average tumor SUVmax), the SUV at 0.05 h is 7 SUV, the SUV at 0.25 h was determined as 8 SUV, the SUV at 0.5 h came to 8 SUV and the SUV at 1 h is 8.3 SUV. Besides, the SUV at 2 h in “clinical [5]” (average tumor SUVmax) worked out at 9.1 SUV. Besides, in data set [6], the “decline of thyroid SUVmean from 3 min to 2.0 h” value came to 62.5% and the main excretory organs entry was “kidneys were the main excretory organs”. Also, the “time of good stability in saline” value in data set [7] is recorded as “at least 4 h”.

As to `N=C(N)NCCC[C@@H]1NC(=O)[C@H](CCCCNC(=O)CN2CCN(CC(=O)O)CCN(CC(=O)O)CC2)NC(=O)[C@@H](Cc2ccccc2)NC(=O)[C@H](CC(=O)O)NC(=O)CNC1=O` [[^68Ga]Ga-RGDfK, metal not drawn, reference compound], in data set [3] (setting [8]), the tissue uptake at 0.5 h is 3.96 ± 0.24 %ID/g, the tissue uptake at 1 h is 3.4 ± 0.16 %ID/g and the tissue uptake at 2 h is 2.89 ± 0.09 %ID/g. For the same compound, the tissue uptake at 1 h in the data set “in vivo” was 3.51 ± 0.47 %ID/g. Moreover, in the data set with Panc02 tumor cells, the “cellular uptake compared with [^68Ga]Ga-FAPI-RGD” value was “less than [^68Ga]Ga-FAPI-RGD at all the time points”.
